Data published in IntAct's records for PubMed 27332895.

B1: Aurora kinase C (Homo sapiens), Q9UQB9 (parent)
chain: MSSPRAVVQLGKAQPAGEELATANQTAQQPSSPAMRRLTVDDFEIGRPLGKGKFGNVYLARLKESHFIVALKVLFKSQIEKEGLEHQLRREIEIQAHLQHPNILRLYNYFHDARRVYLILEYAPRGELYKELQKSEKLDEQRTATIIEELADALTYCHDKKVIHRDIKPENLLLGFRGEVKIADFGWSVHTPSLRRKTMCGTLDYLPPEMIEGRTYDEKVDLWCIGVLCYELLVGYPPFESASHSETYRRILKVDVRFPLSMPLGARDLISRLLRYQPLERLPLAQILKHPWVQAHSRRVLPPCAQMAS

Variants of: B1
Details: with ince_human INCENP

| effect of a mutation on the interaction | Variant |
| --- | --- |
| disrupting interaction | T202A |
| disrupting interaction | T198A |

Variants of: B1
Details: with ince_human INCENP
Remark: another data set of the same source

| effect of a mutation on the interaction | Variant |
| --- | --- |
| disrupting interaction | K76R |
